Reference: patent US20150307561

Key:
[1] = system: TALE tetramer library CTTC (repeats 1-4 varied) (synthetic (Xanthomonas TALE scaffold)); experiment: ELISA; settings: mean of 132 library clones, SE 0.07
[2] = system: TALE tetramer library TCAT (repeats 1-4 varied) (synthetic (Xanthomonas TALE scaffold)); experiment: ELISA; settings: mean of 44 library clones, SE 0.22
[3] = system: TALE tetramer library ATAC (repeats 5-8 varied) (synthetic (Xanthomonas TALE scaffold)); experiment: ELISA; settings: mean of 43 library clones, SE 0.06
[4] = system: TALE tetramer library ATTG (repeats 5-8 varied) (synthetic (Xanthomonas TALE scaffold)); experiment: ELISA; settings: mean of 131 library clones, SE 0.05
[5] = system: TALE tetramer library CAGA (repeats 5-8 varied) (synthetic (Xanthomonas TALE scaffold)); experiment: ELISA; settings: mean of 146 library clones, SE 0.02
[6] = system: TALE tetramer library CAGC (repeats 5-8 varied) (synthetic (Xanthomonas TALE scaffold)); experiment: ELISA; settings: mean of 137 library clones, SE 0.02
[7] = system: TALE tetramer library CCTG (repeats 5-8 varied) (synthetic (Xanthomonas TALE scaffold)); experiment: ELISA; settings: mean of 90 library clones, SE 0.03
[8] = system: TALE tetramer library TACA (repeats 5-8 varied) (synthetic (Xanthomonas TALE scaffold)); experiment: ELISA; settings: mean of 85 library clones, SE 0.06
[9] = system: TALEN R2+17 (synthetic (Xanthomonas TALE scaffold)); experiment: cell_activity; settings: K562, partner L+17 or L*+17, cold shock

## CATAGTCCCCTCTTCATCCTCCTCGGTGTAGTTTTCACAGTCAGTCCACACGTC (double strand) [CTTC target]
[1]
  binding signal (fraction of canonical control): 0.55

## CATAGTCCCCTTCATATCCTCCTCGGTGTAGTTTTCACAGTCAGTCCACACGTC (double strand) [TCAT target]
[2]
  binding signal (fraction of canonical control): 1.03

## CATAGTCCCCTTGACATACTCCTCGGTGTAGTTTTCACAGTCAGTCCACACGTC (double strand) [ATAC target]
[3]
  binding signal (fraction of canonical control): 0.56

## CATAGTCCCCTTGACATTGTCCTCGGTGTAGTTTTCACAGTCAGTCCACACGTC (double strand) [ATTG target]
[4]
  binding signal (fraction of canonical control): 0.37

## CATAGTCCCCTTGACCAGATCCTCGGTGTAGTTTTCACAGTCAGTCCACACGTC (double strand) [CAGA target]
[5]
  binding signal (fraction of canonical control): 0.18

## CATAGTCCCCTTGACCAGCTCCTCGGTGTAGTTTTCACAGTCAGTCCACACGTC (double strand) [CAGC target]
[6]
  binding signal (fraction of canonical control): 0.03

## CATAGTCCCCTTGACCCTGTCCTCGGTGTAGTTTTCACAGTCAGTCCACACGTC (double strand) [CCTG target]
[7]
  binding signal (fraction of canonical control): 0.2

## CATAGTCCCCTTGACTACATCCTCGGTGTAGTTTTCACAGTCAGTCCACACGTC (double strand) [TACA target]
[8]
  binding signal (fraction of canonical control): 0.5

## CCATACAGTCAGTATCAAT (double strand) [CCR5 +17 target, right half]
[9]
  activity: > 85 % indels
